Data taken from publication PMC4164784, “4E-BPs require non-canonical 4E-binding motifs and a lateral surface of eIF4E to repress translation” (Nature Communications, 2014).
“Also recorded” adds a separate entry of the source.

Key:
[1] = test system: endogenous eIF4E; assay: Coimmunoprecipitation / m7GTP pull-down with endogenous eIF4E in S2 cell lysates; type: cell-based, Drosophila melanogaster; conditions: western blot
Method: (§1) The coimmunoprecipitations assays were performed as previously described. For the pull downs using m^7GTP beads, 25 μl of immobilized γ-aminophenyl-m^7GTP (C10-spacer—Jena Bioscience) beads was added to the cell lysates and the mixtures were rotated for 1 h at 4 °C. The beads were washed three times with NET buffer (50 mM Tris (pH 7.4), 150 mM NaCl, 1 mM EDTA and 0.1% Triton X-100). The bound proteins were eluted with 2 × SDS–polyacrylamide gel electrophoresis (SDS–PAGE) sample buffer and analyzed by western blotting (WB). All of the WB experiments were developed with the ECL western blotting detection system (GE Healthcare) as recommended by the manufacturer. The antibodies used in this study are listed in Supplementary Table 2.
Thor and 4E-T) or HA-eIF4G and endogenous eIF4E in S2 cell lysates. The proteins were immunoprecipitated using a polyclonal anti-eIF4E antibody (α-4E). The pre-immune (Pre-I) serum and an HA-tagged version of MBP served as negative controls. The inputs (1%) and immunoprecipitates (10%) were analyzed by western blotting using anti-HA and anti-eIF4E antibodies. (b,c) The interaction of HA-tagged full length 4E-BPs (CUP, Thor and 4E-T) and eIF4G with endogenous eIF4E was analyzed by coimmunoprecipitation using anti-HA antibodies (b) or by pull-down using m7GTP-Sepharose beads (c). HA-MBP served as a negative control. The inputs (10%) and immunoprecipitates (30%) were analyzed by western blotting using anti-HA and anti-eIF4E antibodies. (d) Western blot showing the interaction of HA-Thor (full-length either wild-type or mutants) with endogenous eIF4E in S2 cells. The proteins were immunoprecipitated using anti-HA antibodies and analyzed as described in (b,c). (e) Western blot showing the interaction of HA-4E-T (residues 1–511, wild-type or mutants) with endogenous eIF4E. The proteins were immunoprecipitated using anti-HA antibodies and analyzed as described in (b,c). The size markers (kDa) are shown to the right of each panel. Mutants are described in Supplementary Table 1.

[2] = test system: eIF4E II-AA (lateral surface mutant); assay: Coimmunoprecipitation with HA-eIF4E II-AA in S2 cells; type: cell-based, Drosophila melanogaster; conditions: HA-eIF4E II-AA vs WT, western blot
Method: as §1

[3] = test system: eIF4E II-AA mutant (full length); assay: GST/MBP pull-down of full-length eIF4E II-AA mutant, coexpressed in E. coli; type: binding, Drosophila melanogaster; conditions: recombinant CUP (311–440), Thor (full length), 4E-T (1–58) or eIF4G (578–650), WT or mutant, SDS–PAGE
Method: (§2) For the pull-down assays shown in Fig. 3 and Supplementary Fig. 6a, the full-length His6- or SHN-tagged eIF4E (WT or II-AA mutant) was coexpressed with GST or MBP-tagged protein fragments, including CUP (residues 311–440), Thor (full length), 4E-T (residues 1–58) or eIF4G (residues 578–650) in E. coli BL21 (DE3) STAR cells in autoinducing medium[44] overnight at 20 °C. The cells were resuspended in lysis buffer (20 mM Tris–HCl (pH 7.5), 100 mM NaCl, 1 mM DTT) supplemented with EDTA-free protease inhibitor (Roche) and lysed by sonication. The cleared lysates were incubated for 1 h with 20 μl of Protino Glutathione Agarose 4B beads (Macherey-Nagel) or amylose resin (New England Biolabs). The beads were washed three times with lysis buffer, and the bound proteins were eluted with lysis buffer containing 25 mM L-glutathione or 25 mM maltose for 15 min. The proteins were analyzed by 10–15% SDS–PAGE followed by Coomassie blue staining.

[4] = test system: firefly luciferase (F-Luc) reporter in S2 cells; assay: Translation repression assay, F-Luc reporter in S2 cells; type: cell-based, Drosophila melanogaster; conditions: overexpression, C.I. and E.I., unpublished results
Method: S2 cells were transfected in 6-well plates using Effectene transfection reagent (Qiagen) according to the manufacturers protocol. The transfection mixtures contained: 0.1 μg of F-Luc reporter plasmid (F-Luc-V5), 0.3 μg of control RNA reporter, and increasing amounts of plasmids expressing HA-CUP (fragment 1–402; 0.05–0.2 μg) and HA-Thor (full length, 0.1–0.5 μg). The plasmids expressing the corresponding mutants or the HA peptide control were transfected at the highest concentration. In all the experiments, the cells were collected three days after transfection. The F-Luc activity was measured using the Dual-Luciferase reporter assay system (Promega). The northern blotting was performed as previously described. The F-Luc mRNA levels were determined by northern blotting and were normalized to those of the control RNA. The normalized F-Luc mRNA levels were then used to normalize the F-Luc activity, to obtain translation efficiencies.

[5] = test system: endogenous eIF4E and HA-tagged 4E-BPs in S2 cells; assay: Immunofluorescence localization in S2 cells; type: cell-based, Drosophila melanogaster
Method: S2 cells expressing HA-tagged versions of CUP, Thor and 4E-T or the indicated mutants were treated with Leptomycin B (100 nM; Sigma) or methanol as a control for 12 h. After the LMB treatment, the cells were allowed to adhere to poly-D-lysine–coated coverslips for 15 min and were fixed with 2% paraformaldehyde for 10 min. The cells were then permeabilized with 0.1% Triton X-100 in PBS (10 min) and stained with affinity-purified monoclonal anti-HA (Covance 1:1,000) and polyclonal anti-eIF4E (1:2,000) antibodies in PBS containing 1% BSA for 1 h. Alexa Fluor 594-labeled goat anti-rabbit and 488-labeled anti-mouse antibodies (Invitrogen) were used at dilutions of 1:1,000 and 1:2,000, respectively. The cells were mounted using Fluoromount-G (Southern Biotech). The images were acquired at room temperature using a confocal microscope (TCS SP2; Leica) that was fitted with a Plan-Apochromat × 100 NA 1.40 oil immersion objective and a series of three photomultipliers (Hamamatsu Photonics) controlled with the Leica confocal software (version 2.61). The images were prepared using Photoshop (Adobe). […]
Thor) independent experiments. […] Confocal fluorescent […]
micrographs of fixed S2 cells expressing HA-4E-T and GFP-Tral. The localization of HA-4E-T was determined by indirect immunofluorescence using an anti-HA antibody. The merged pictures show the HA signal in red and the GFP-Tral signal in green. Bar: 5 μm.

[6] = biological target: T1, SHN-eIF4E (full length, WT) (Drosophila melanogaster, UniProt P48598-2 1-248); assay: pull-down; preassembled complexes of SHN-eIF4E (WT or II-AA) with GST-eIF4G, GST-CUP, GST-Thor or GST-4E-T (coexpressed, purified on glutathione agarose) recovered on Strep-Tactin beads; conditions: both partners purified
T1 construct: eIF4E, Drosophila melanogaster; also called SHN-tagged eIF4E; SNH-tagged eIF4E; not shown: Strep-NusA-His (SHN), N-terminal, kept
T1 sequence (looked up): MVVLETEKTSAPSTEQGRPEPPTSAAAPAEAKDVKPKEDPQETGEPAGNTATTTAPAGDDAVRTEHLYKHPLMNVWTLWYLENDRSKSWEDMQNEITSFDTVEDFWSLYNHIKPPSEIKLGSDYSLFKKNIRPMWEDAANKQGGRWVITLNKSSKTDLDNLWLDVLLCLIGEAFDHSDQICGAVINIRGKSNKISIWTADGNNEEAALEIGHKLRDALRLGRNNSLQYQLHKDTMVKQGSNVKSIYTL

[7] = test system: eIF4E (full length, WT); assay: GST/MBP pull-down of full-length WT eIF4E, coexpressed in E. coli; type: binding, Drosophila melanogaster; conditions: recombinant CUP (311–440), Thor (full length), 4E-T (1–58) or eIF4G (578–650), WT or mutant, SDS–PAGE
Method: as §2

[8] = biological target: T2, eIF4E–eIF4G complex (eIF4E WT; eIF4G residues 578–650) (Drosophila melanogaster, UniProt P48598); assay: Competition assay, displacement of GST-eIF4G from preassembled eIF4E (WT)–eIF4G complexes; type: biochemical; conditions: Fig. 5a,c; fivefold molar excess of MBP-tagged competitor, 30 min at 4 °C, m7GTP or Strep-Tactin pull down
T2 construct: full-length eIF4E (WT or the II-AA mutant) containing an N-terminal SNH-tag was coexpressed; made in house; host or cells: E. coli BL21 Star (DE3), coexpression
T2 sequence (P48598 1-248 isoform P48598-2): T1 sequence (looked up)
Method: For the competition assays shown in Figs 5a,c and 6a,b, complexes containing SHN- or MBP-tagged eIF4E (WT or II-AA mutant) bound to GST-eIF4G (residues 578–650), GST-Thor (full length), GST-4E-T (residues 1–58) or GST-CUP (311–440) were obtained by coexpressing the corresponding proteins in E. coli BL21 (DE3) STAR cells (30 ml culture). The cells were resuspended in lysis buffer (5 ml) that was supplemented with EDTA-free protease inhibitor (Roche) and 1 mg ml^−1 lysozyme and lysed by sonication. The cleared lysates were incubated with 400 μl of Protino Glutathione Agarose 4B (Macherey-Nagel) for 1 h. The beads were washed three times with lysis buffer, and the proteins were eluted after 10 min of incubation with lysis buffer containing 25 mM L-glutathione. The protein complexes were stored at −20 °C or used in competition assays.
The purified recombinant complexes were mixed with excess amounts of the indicated purified competitor proteins (Fig. 5c) or with bacterial lysates expressing the competitor proteins (Figs 5a and 6) and incubated for 30 min at 4 °C. After incubation, 20 μl of immobilized γ-Aminophenyl-m^7GTP or Strep-Tactin Sepharose (IBA), were added to the samples and incubated for another 40 min at 4 °C. The beads were washed three times with lysis buffer and eluted with lysis buffer containing 2.5 mM desthiobiotin (Strep-Tactin Sepharose) or with 20 μl of SDS–PAGE loading buffer (Aminophenyl-m^7GTP beads). The proteins were analyzed by 10–15% SDS–PAGE followed by staining with Coomassie blue staining. […]

B1: 4E-T: Dm 4E-transporter (1–1010), Q8IH18; residues 1–58 in pull-down assays (protein)
chain: MDTSKISARYSKVDLLALRYEGKSRQRPQCSTRLELQTLGFWKINLNTAALTVSSAYSNQNKNRLSPEADNSSLICSNSSSISSRRAMRNRERANNYYQRFVPTDSLLISGEDKDKDALSHGQPYKLNIIDHRSISSSHLMPAFAKRRFVISKGSNSEESNEGINTCASKGKAASSPSRKGSELDTAETCLNFVQPDHDQCMSSSPTFSTSRQERRIGSGRLLPRSDNWDYKNEKTVEASIENEKETSPNGSGSTSSLNQHNQSQHRSRTFSGRLVERVPEVTDRRFQYDSKKSFDRQGINNRRISGKEPFSTQSRSKRGNSYLIHEEPEWFSAGPKSQLETIDLHGFEDLEKNEERSVTEDKNNQIQQLDKNLDAQASKDEASMRNSNDSLNFREVIPSDEKKHTDENVVTSIQNSTDLGHPNKNKPIQMQPSQNPESEFNFDAFLNMHPLDNSVLSNDETGKSDSKGTSRFSRWFRQKEAANNNEFPGFRESHAQEKRGIPSVKDLEAQMIKVDMRTDLINPIAGSLCQTVQMEKPIARDTEAFKKLLQQLGSQARQHHPCNDDCRTINLSNIANHVHLESKLHQKINDGHLQQPELSVNVPTMPTSSHVFLQKRLEIQHLIQRLHCGDVSHDFLEKELDNPSTPAATKDVIATVLNEYSHSKRNPVVTGDPNIFTQQSFLQPQSVHQHYSQELHSQNTANHTINQLISHGNSPTPLAFTPTSVLRKMTADKDTQSPSTYCQNPQYHVHQQNAKQVGTRENVLEPQLTATMAVQPRMILGGGNFAIGQNNQHLSPNMSQSRNQQVLKWTSGNMQMVHGKTFGRPILKGGLNSMPHSNSALPFTAHKIEMQPIHQPHLQQQQHRFKAVQSVESNLNTESVHQNITSPVGWHQLYMQHQQQHHHTRQQLSQRVIYGEMHRQSNPQMSPPVPGFSDSSDSGNVIKANSLTSPSYQRDERISSPTNQLAQWFSPELLAKASAGKLPLLNVNQALSLEEFERSIQHSSGVVHN
modifications: left off: GFP, end not stated, kept
notes: Dm 4E-transporter (1–1010), Q8IH18; residues 1–58 in pull-down assays
interaction with endogenous eIF4E (in words) [1]: interacted with endogenous eIF4E | association with eIF4E II-AA (in words) [2]: disrupted the association | binding to eIF4E II-AA mutant (in words) [3]: pulled down comparable amounts of WT and mutant eIF4E | effect on mRNA upon overexpression (in words) [4]: caused mRNA degradation when overexpressed | nuclear accumulation of endogenous eIF4E upon LMB (in words) ([5]; S2 cells expressing 4E-BP or mutant, LMB 100 nM, 12 h): endogenous eIF4E accumulated in the nucleus | localization of endogenous eIF4E (in words) ([5]; S2 cells overexpressing 4E-BP or mutant, −LMB): detected in P-bodies | nuclear accumulation of 4E-BP upon LMB (in words) ([5]; S2 cells, LMB 100 nM, 12 h): nuclear accumulation | localization of the 4E-BP (in words) ([5]; S2 cells, steady-state, −LMB): localizes to P-bodies; also recorded: accumulated in cytoplasmic foci, which correspond to P-bodies

B2: GST-Thor (full length) (natural protein, Drosophila melanogaster, UniProt Q9XZ56 1-117, looked up)
chain: MSASPTARQAITQALPMITRKVVISDPIQMPEVYSSTPGGTLYSTTPGGTKLIYERAFMKNLRGSPLSQTPPSNVPSCLLRGTPRTPFRKCVPVPTELIKQTKSLKIEDQEQFQLDL
notes: Thor, Drosophila melanogaster; source: E. coli BL21 (DE3) STAR, coexpressed with SHN-eIF4E, complex purified on glutathione agarose
binding result [6]: binds

B3: Thor ΔNC: Thor ∆76–84, non-canonical motif deleted (protein)
chain: MSASPTARQAITQALPMITRKVVISDPIQMPEVYSSTPGGTLYSTTPGGTKLIYERAFMKNLRGSPLSQTPPSNVRTPFRKCVPVPTELIKQTKSLKIEDQEQFQLDL
modifications: left off: HA (λN-HA, from the vector pAc5.1-λN-HA), end not stated, kept | V5, end not stated, state not stated
notes: Thor ∆76–84, non-canonical motif deleted
interaction with endogenous eIF4E (in words) [1]: abolished the interaction with eIF4E | binding to WT eIF4E (in words) [7]: The results obtained for the Thor NC* and C+NC* mutants were confirmed; also recorded: interacted with eIF4E | competition with eIF4G for eIF4E WT (in words) [8]: abolish its ability to compete with eIF4G
